Measurements: US20230002480A1

What was measured:
Experiment in all cases: cell-based or functional assay
[1] = molecular target: HIV-1 Env of pseudovirus 246F C1G (HIV-1)
[2] = molecular target: HIV-1 Env of pseudovirus P0402_c2_11 (HIV-1)
[3] = molecular target: HIV-1 Env of pseudovirus T255-34 (HIV-1)
[4] = molecular target: HIV-1 Env of pseudovirus 6545.v4.c1 (HIV-1)
[5] = molecular target: HIV-1 Env of pseudovirus 9004SS_A3_4 (HIV-1)
[6] = molecular target: HIV-1 Env of pseudovirus CNE52 (HIV-1)
[7] = molecular target: HIV-1 Env of pseudovirus ZM247v1(Rev-) (HIV-1)
[8] = molecular target: HIV-1 Env of pseudovirus CNE21 (HIV-1)
[9] = molecular target: HIV-1 Env of pseudovirus C1080.c03 (HIV-1)
[10] = molecular target: HIV-1 Env of pseudovirus 231965.c01 (HIV-1)
[11] = molecular target: HIV-1 Env of pseudovirus HIV-0013095-2.11 (HIV-1)
[12] = molecular target: HIV-1 Env of pseudovirus CNE19 (HIV-1)
[13] = molecular target: HIV-1 Env of pseudovirus 263-8 (HIV-1)
[14] = molecular target: HIV-1 Env of pseudovirus PVO.4 (HIV-1)
[15] = molecular target: HIV-1 Env of pseudovirus 3301.v1.c24 (HIV-1)
[16] = molecular target: HIV-1 Env of pseudovirus SC422661.8 (HIV-1)
[17] = molecular target: HIV-1 Env of pseudovirus 620345.c01 (HIV-1)
[18] = molecular target: HIV-1 Env of pseudovirus 6480.v4.c25 (HIV-1)
[19] = molecular target: HIV-1 Env of pseudovirus SC05_8C11_2344 (HIV-1)
[20] = molecular target: HIV-1 Env of pseudovirus HIV-16055-2.3 (HIV-1)
[21] = molecular target: HIV-1 Env of pseudovirus X1632_S2_B10 (HIV-1)
[22] = molecular target: HIV-1 Env of pseudovirus 3365.v2.c2 (HIV-1)
[23] = molecular target: HIV-1 Env of pseudovirus BJOX010000.06.2 (HIV-1)
[24] = molecular target: HIV-1 Env of pseudovirus 3103.v3.c10 (HIV-1)
[25] = molecular target: HIV-1 Env of pseudovirus AC10.0.29 (HIV-1)
[26] = molecular target: HIV-1 Env of pseudovirus THRO4156.18 (HIV-1)
[27] = molecular target: HIV-1 Env of pseudovirus 6952.v1.c20 (HIV-1)
[28] = molecular target: HIV-1 Env of pseudovirus 211-9 (HIV-1)
[29] = molecular target: HIV-1 Env of pseudovirus BJOX025000.01.1 (HIV-1)
[30] = molecular target: HIV-1 Env of pseudovirus 89-F1_2_25 (HIV-1)
[31] = molecular target: HIV-1 Env of pseudovirus Q769.d22 (HIV-1)
[32] = molecular target: HIV-1 Env of pseudovirus C3347.c11 (HIV-1)
[33] = molecular target: HIV-1 Env of pseudovirus ZM135M.PL10a (HIV-1)
[34] = molecular target: HIV-1 Env of pseudovirus TRJO4551.58 (HIV-1)
[35] = molecular target: HIV-1 Env of pseudovirus T257-31 (HIV-1)
[36] = molecular target: HIV-1 Env of pseudovirus Ce1086_B2 (HIV-1)
[37] = molecular target: HIV-1 Env of pseudovirus ZM197M.PB7 (HIV-1)

For VRC07 (antibody), which neutralization IC50 [1] is on record?
Its neutralization IC50 is 0.286 µg/mL.

And the neutralization IC80 [1]?
The neutralization IC80 was 1.04 µg/mL.

And the IC50, titer in TZM.bl cells [2]?
The IC50, titer in TZM.bl cells was 0.085 µg/mL.

And the IC80, titer in TZM.bl cells [2]?
Its IC80, titer in TZM.bl cells is 0.422 µg/mL.

And the IC50, titer in TZM.bl cells [3]?
The IC50, titer in TZM.bl cells was 0.227 µg/mL.

What about the IC80, titer in TZM.bl cells [3] of the same substance?
The IC80, titer in TZM.bl cells was 0.987 µg/mL.

What about the IC50, titer in TZM.bl cells [4] of the same substance?
Its IC50, titer in TZM.bl cells is over 50 µg/mL.

What about the IC80, titer in TZM.bl cells [4] of the same substance?
The IC80, titer in TZM.bl cells was over 50 µg/mL.

What about the neutralization IC50 [5] of the same substance?
The neutralization IC50 was 0.218 µg/mL.

What about the neutralization IC80 [5] of the same substance?
Its neutralization IC80 is 0.75 µg/mL.

What about the neutralization IC50 [6] of the same substance?
The neutralization IC50 was 0.042 µg/mL.

And the neutralization IC80 [6]?
The neutralization IC80 was 0.142 µg/mL.

What about the neutralization IC50 [7] of the same substance?
The neutralization IC50 was 0.041 µg/mL.

And the neutralization IC80 [7]?
The neutralization IC80 was 0.189 µg/mL.

And the neutralization IC50 [8]?
Its neutralization IC50 is 0.05 µg/mL.

What about the neutralization IC80 [8] of the same substance?
The neutralization IC80 was 0.222 µg/mL.

What about the IC50, titer in TZM.bl cells [9] of the same substance?
The IC50, titer in TZM.bl cells was 2.03 µg/mL.

What about the IC80, titer in TZM.bl cells [9] of the same substance?
Its IC80, titer in TZM.bl cells is 8.25 µg/mL.

And the IC50, titer in TZM.bl cells [10]?
Its IC50, titer in TZM.bl cells is 0.085 µg/mL.

And the IC80, titer in TZM.bl cells [10]?
The IC80, titer in TZM.bl cells was 0.263 µg/mL.

What about the neutralization IC50 [11] of the same substance?
The neutralization IC50 was 0.017 µg/mL.

And the neutralization IC80 [11]?
Its neutralization IC80 is 0.057 µg/mL.

What about the neutralization IC50 [12] of the same substance?
Its neutralization IC50 is 0.092 µg/mL.

And the neutralization IC80 [12]?
Its neutralization IC80 is 0.232 µg/mL.

And the neutralization IC50 [13]?
The neutralization IC50 was 0.103 µg/mL.

What about the neutralization IC80 [13] of the same substance?
Its neutralization IC80 is 0.282 µg/mL.

And the neutralization IC50 [14]?
The neutralization IC50 was 0.063 µg/mL.

And the neutralization IC80 [14]?
The neutralization IC80 was 0.226 µg/mL.

What about the IC50, titer in TZM.bl cells [15] of the same substance?
Its IC50, titer in TZM.bl cells is 0.027 µg/mL.

And the IC80, titer in TZM.bl cells [15]?
Its IC80, titer in TZM.bl cells is 0.073 µg/mL.

And the neutralization IC50 [16]?
The neutralization IC50 was 0.054 µg/mL.

And the neutralization IC80 [16]?
The neutralization IC80 was 0.175 µg/mL.

What about the IC50, titer in TZM.bl cells [17] of the same substance?
The IC50, titer in TZM.bl cells was over 50 µg/mL.

And the IC80, titer in TZM.bl cells [17]?
The IC80, titer in TZM.bl cells was over 50 µg/mL.

What about the IC50, titer in TZM.bl cells [18] of the same substance?
Its IC50, titer in TZM.bl cells is 0.032 µg/mL.

And the IC80, titer in TZM.bl cells [18]?
Its IC80, titer in TZM.bl cells is 0.134 µg/mL.

And the neutralization IC50 [19]?
Its neutralization IC50 is 0.133 µg/mL.

What about the neutralization IC80 [19] of the same substance?
The neutralization IC80 was 0.401 µg/mL.

And the neutralization IC50 [20]?
The neutralization IC50 was 0.025 µg/mL.

And the neutralization IC80 [20]?
The neutralization IC80 was 0.135 µg/mL.

What about the IC50, titer in TZM.bl cells [21] of the same substance?
The IC50, titer in TZM.bl cells was 0.023 µg/mL.

What about the IC80, titer in TZM.bl cells [21] of the same substance?
The IC80, titer in TZM.bl cells was 0.107 µg/mL.

What about the neutralization IC50 [22] of the same substance?
The neutralization IC50 was 0.038 µg/mL.

What about the neutralization IC80 [22] of the same substance?
Its neutralization IC80 is 0.109 µg/mL.

And the IC50, titer in TZM.bl cells [23]?
Its IC50, titer in TZM.bl cells is 1.06 µg/mL.

What about the IC80, titer in TZM.bl cells [23] of the same substance?
The IC80, titer in TZM.bl cells was 10 µg/mL.

And the IC50, titer in TZM.bl cells [24]?
The IC50, titer in TZM.bl cells was 0.675 µg/mL.

What about the IC80, titer in TZM.bl cells [24] of the same substance?
Its IC80, titer in TZM.bl cells is 1.95 µg/mL.

What about the neutralization IC50 [25] of the same substance?
Its neutralization IC50 is 0.282 µg/mL.

And the neutralization IC80 [25]?
The neutralization IC80 was 0.986 µg/mL.

What about the neutralization IC50 [26] of the same substance?
The neutralization IC50 was 2.4 µg/mL.

What about the neutralization IC80 [26] of the same substance?
The neutralization IC80 was 12.2 µg/mL.

And the IC50, titer in TZM.bl cells [27]?
Its IC50, titer in TZM.bl cells is 0.064 µg/mL.

And the IC80, titer in TZM.bl cells [27]?
Its IC80, titer in TZM.bl cells is 0.181 µg/mL.

And the IC50, titer in TZM.bl cells [28]?
The IC50, titer in TZM.bl cells was 5.92 µg/mL.

And the IC80, titer in TZM.bl cells [28]?
The IC80, titer in TZM.bl cells was 38 µg/mL.

What about the IC50, titer in TZM.bl cells [29] of the same substance?
The IC50, titer in TZM.bl cells was 0.279 µg/mL.

And the IC80, titer in TZM.bl cells [29]?
Its IC80, titer in TZM.bl cells is 2.29 µg/mL.

And the IC50, titer in TZM.bl cells [30]?
Its IC50, titer in TZM.bl cells is over 50 µg/mL.

What about the IC80, titer in TZM.bl cells [30] of the same substance?
Its IC80, titer in TZM.bl cells is over 50 µg/mL.

And the neutralization IC50 [31]?
Its neutralization IC50 is 0.018 µg/mL.

What about the neutralization IC80 [31] of the same substance?
Its neutralization IC80 is 0.087 µg/mL.

And the IC50, titer in TZM.bl cells [32]?
Its IC50, titer in TZM.bl cells is 0.06 µg/mL.

What about the IC80, titer in TZM.bl cells [32] of the same substance?
The IC80, titer in TZM.bl cells was 0.38 µg/mL.

What about the neutralization IC50 [33] of the same substance?
Its neutralization IC50 is 0.104 µg/mL.

And the neutralization IC80 [33]?
Its neutralization IC80 is 0.383 µg/mL.

What about the neutralization IC50 [34] of the same substance?
Its neutralization IC50 is 0.032 µg/mL.

And the neutralization IC80 [34]?
The neutralization IC80 was 0.125 µg/mL.

What about the neutralization IC50 [35] of the same substance?
The neutralization IC50 was 0.421 µg/mL.

And the neutralization IC80 [35]?
Its neutralization IC80 is 3.17 µg/mL.

And the neutralization IC50 [36]?
Its neutralization IC50 is 0.128 µg/mL.

And the neutralization IC80 [36]?
Its neutralization IC80 is 0.84 µg/mL.

What about the neutralization IC50 [37] of the same substance?
The neutralization IC50 was 0.307 µg/mL.

What about the neutralization IC80 [37] of the same substance?
The neutralization IC80 was 1.27 µg/mL.
